Where no end group is shown, it is not given here. fluorescein = fluorescein label at the peptide N-terminus

The labels stand for the following.
B1: A13 (poly(A) RNA 13-mer) (ssRNA)
RNA: AAAAAAAAAAAAA
B2: GST-P90-160 (domain or fragment)
chain: DPTPSDNPFSKLYKETIETFDNNEEESSYSYEEINDQTNDNITARLDRIDEKLSEILGMLHTLVVASAGPT
notes: HRSV phosphoprotein P, strain A2, residues 90-160; pGEX-6P-2 construct; not shown: GST, N-terminal, kept
B3: P90-110 peptide, unlabeled (residues 90 to 110 of HRSV P) (peptide, UniProt P03421 90-110, looked up)
peptide: DPTPSDNPFSKLYKETIETFD
notes: HRSV phosphoprotein P, strain A2, residues 90-110; residues 97 to 109 seen in the density; also called P peptide; source: synthetic peptide (ProteoGenix)
B4: GST-P90-110 (domain or fragment, UniProt P03421 90-110, looked up)
chain: DPTPSDNPFSKLYKETIETFD
notes: HRSV phosphoprotein P, strain A2, residues 90-110; pGEX-6P-2 construct; also called P90–110 (GST fusion); not shown: GST, N-terminal, kept
B5: Fluorescein-labeled P90-110 peptide (peptide, UniProt P03421 90-110, looked up)
peptide: fluorescein-DPTPSDNPFSKLYKETIETFD
notes: HRSV phosphoprotein P, residues 90-110; Strain A2 is stated for the unlabeled peptide; source: synthetic peptide (ProteoGenix)
B6: Human respiratory syncytial virus (HRSV) M2-1 protein, full-length native tetramer (natural protein)
chain: MSRRNPCKFEIRGHCLNGKRCHFSHNYFEWPPHALLVRQNFMLNRILKSMDKSIDTLSEISGAAELDRTEEYALGVVGVLESYIGSINNITKQSACVAMSKLLTELNSDDIKKLRDNEELNSPKIRVYNTVISYIESNRKNNKQTIHLLKRLPADVLKKTIKNTLDIHKSITINNPKESTVSDTNDHAKNNDTT
notes: HRSV M2-1 protein, strain A2, M2-1 ORF; 194 amino acids; Also used here as the wild-type M2-1 of the minigenome rows, where it was expressed from a plasmid in BSRT7 cells; also called native M2-1; tetrameric M2-1; source: E. coli BL21(DE3) Gold, purified (glutathione Sepharose, on-column PreScission cleavage, SP Sepharose; Superdex 75 for crystallization); not shown: GST, N-terminal, cleaved

Data set [1] has as its target GST-P1-241 (full-length HRSV phosphoprotein P fused to GST) (human respiratory syncytial virus, strain A2) (UniProt P03421).
The target of a further data set is T1, M2-1 (Human respiratory syncytial virus …, UniProt P04545 1-194).
T1 sequence: B6 chain
The data set can be described thus: fluorescence anisotropy competition; displaces 10 nM fluorescein-P90-110 peptide from 1 uM M2-1; 20 mM Tris-Cl pH 7.5, 150 mM NaCl, 0.01% Triton X-100, room temperature, 30 min. Conditions: protein: recombinant; tags: GST removed by PreScission protease; chain copies: 4; single strand. A general note: Polarisation of emitted light reports the rotation of a fluorescent probe.

The target of data set [2] is B6. As to the kind of experiment: pull-down; GST-P constructs from clarified E. coli lysates held on glutathione Sepharose 4B and washed; 1 mg purified M2-1 added, room temperature, 5 min; 25 mM Tris/HCl pH 7.4, 150 mM NaCl, 1 mM DTT; SDS-PAGE, Coomassie staining. Conditions: both partners purified.
Data set [3] has as its target B6. As to the kind of experiment: crystal structure; M2-1 tetramer mixed with P90-110 in a 1:1 molar ratio, concentrated to 8 mg/ml; sitting drop vapor diffusion at 18°C; 0.2 M trimethylamine N-oxide dihydrate, 0.1 M Tris-HCl pH 8.5, 2% PEG MME 2000; 2.4 Å. Conditions: both partners purified.
In data set [4] the target is B6. The data set can be described thus: fluorescence polarisation; fluorescence anisotropy, direct binding; 10 nM fluorescein-labeled P90-110, M2-1 0.1 nM to 300 μM; 20 mM Tris-Cl pH 7.5, 150 mM NaCl, 0.01% Triton X-100; 30 min at room temperature; 384-well; triplicate; apparent. To be noted: both partners purified.
Data set [5] addresses T2, GST-P1-241 (full-length HRSV phosphoprotein P fused to GST) (human respiratory syncytial virus, …, UniProt P03421 1-241).
T2 construct: pGEX-6P-2 construct; Also used here as the wild-type P of the minigenome rows, where P was expressed from a plasmid in BSRT7 cells (no GST told there); also called WT P; not shown: GST, N-terminal, kept
As to the kind of experiment: pull-down; GST-P constructs from clarified E. coli lysates held on glutathione Sepharose 4B and washed; 1 mg purified M2-1 added, room temperature, 5 min; 25 mM Tris/HCl pH 7.4, 150 mM NaCl, 1 mM DTT; SDS-PAGE, Coomassie staining. To be noted: both partners purified.

Data set [6] has as its target B3. As to the kind of experiment: crystal structure; M2-1 tetramer mixed with P90-110 in a 1:1 molar ratio, concentrated to 8 mg/ml; sitting drop vapor diffusion at 18°C; 0.2 M trimethylamine N-oxide dihydrate, 0.1 M Tris-HCl pH 8.5, 2% PEG MME 2000; 2.4 Å. To be noted: both partners purified.
Data set [7] deals with the molecule itself. The description is as above.

Turning to “HRSV M2-1 L148A (from UniProt P04545 1-194) (natural protein)”, the HRSV minigenome assay, eGFP fluorescence in BSRT7 cells relative to WT M2-1 in data set [1] was 30 % of WT M2-1.
Turning to “HRSV M2-1 R126E (from UniProt P04545 1-194) (natural protein)”, the HRSV minigenome assay, eGFP fluorescence in BSRT7 cells relative to WT M2-1 in data set [1] was 30 % of WT M2-1.
With B1, the IC50 (as a rule, the concentration needed to halve the response being measured) in the data set with M2-1 amounted to 1.7 µM.
With B2, the binding result in data set [2] is “binds”.
Regarding B3, the binding result in data set [3] is “binds”.
For B4, the binding result in data set [2] is “binds”.
With B5, in data set [4], the Kd came out at 7.5 µM.
As for B6, in data set [5], the binding result is recorded as “binds”. The stoichiometry N (in general, the number of molecules, sites or subunits per partner or assembly) in data set [6] came to 1; in data set [7] it was 4.

The values above are taken from PMC6234862, “The Structure of the Human Respiratory Syncytial Virus M2-1 Protein Bound to the Interaction Domain of the Phosphoprotein P Defines the Orientation of the Complex” (mBio, 2018).
